From patent US20230115257A1 (CURIA IP, published 2023)

Key:
[1] = biological target: T1, SARS-CoV-2 B.1.617.2 spike trimer variant (SARS-CoV-2 B.1.617.2 (Delta), UniProt P0DTC2 16-1213); assay: Table A: binding pattern against variant spike proteins
T1 construct: also called delta; SARS-CoV-2 Delta Spike

[2] = biological target: T2, SARS-CoV-2 B.1.1.7 spike protein (SARS-CoV-2 B.1.1.7 (Alpha), UniProt P0DTC2 13-1213); assay: as above
T2 construct: also called alpha; SARS-CoV-2 B.1.1.7 spike trimer variant

[3] = biological target: T3, SARS-CoV-2 P.1 spike protein (SARS-CoV-2 P.1 (Gamma), UniProt P0DTC2 13-1213); assay: as above
T3 construct: also called gamma; SARS-CoV-2 P.1 spike trimer variant

[4] = biological target: T4, SARS-CoV-2 (WIV02 isolate) prefusion stabilized spike trimer protein (SARS-CoV-2 (WIV02 isolate), UniProt P0DTC2 14-1213); assay: as above
T4 construct: also called WT; SARS-CoV-2 spike trimer

[5] = biological target: T5, SARS-CoV-2 B.1.1.529 spike trimer variant (SARS-CoV-2 B.1.1.529 (Omicron), UniProt P0DTC2 16-1213); assay: as above
T5 construct: also called omicron; Omicron B.1.1.529

[6] = biological target: T6, SARS-CoV-2 BA.2 spike trimer variant (SARS-CoV-2 Omicron BA.2, UniProt P0DTC2 16-1213); assay: as above
T6 construct: also called Omicron BA.2

[7] = biological target: T7, SARS-CoV-2 Beta (B.1.351) variant prefusion stabilized spike trimer protein (SARS-CoV-2 Beta (B.1.351), UniProt P0DTC2 14-1213); assay: Table A (reprint): binding pattern against variant spike proteins
T7 construct: also called SARS-CoV-2 B.1.351 spike protein; β spike

[8] = biological target: T7, SARS-CoV-2 Beta (B.1.351) variant …; assay: ELISA screens of hybridomas on WT, Alpha, Beta and Gamma spike

B1: 9-M12-A (antibody, V domains shown)
VH: EVQLVESGGDLVKPGGSLKLSCTASGFTFSSYGMSWVRQTPDKRLEWVTTISSGGGYTYVPDSVKGRFTISRDNAKNTLYLHMSSLKSEDTAMYFCARPLIPTMVEAFDYWGQGTSLTVSS
VL: SIVMTQTPKFLPVSAGDRVTMTCKASQSVGNNVAWYQQKPGQSPKLLIYYASNRYTGVPDRFTGSGSGADFTFTISSVQVEDLAVYFCQQHYSSPFTFGTGTKLEIK
B1: no binding [1]; no binding [2]; no binding [3]. B1: no binding [4]; no binding [5]; no binding [6].

B2: 3-P17-A (antibody, V domains shown)
VH: QVQLKQSGPGLVQPSQSLSITCTVSGFSLTSYGVHWVRQSPGKGLEWLGVIWSGGITDYNAGFISRLSISKDNSKSQVFFTMNSLQADDTAIYYCARIITTVLDQFADWGQGTLVTVSA
VL: DIVLTQSPASLAVSLGQRATISCRASQSVSTSTYSYIHWYQQKPGQPPKLLIKYASNLESGVPARFSGSGSGTDFTLNIHPVEEEDTATYYCQHSWEIPPTFGAGTKLELK
B2: binds [7]; no binding [1]; no binding [2]. B2: no binding [3]; no binding [4]; no binding [5]. B2: no binding [6].

B3: 3-K11-A (antibody, V domains shown)
VH: EVQLQQSGPELVKPGASVKMSCKASGYTFTSYVMHWVKQKPGQGLEWIGYINPYNDGTEYNEKFKGKATLTSDKSSSTAYMELSSLTSEDSAVYHCAREAYRYFDVWGTGTTVTVSS
VL: DIQMTQSPASLSVSVGETVTITCRASENIYSNLAWYQQKQGKYPQLLVYGATNLADGVPSRFSGSGSGTQYFLKINSLQSEDFGSYYCQHFWGIPWTFGGGTKLEIK
B3: no binding [1]; no binding [2]; no binding [3]. B3: no binding [4]; no binding [6].

B4: 4-O14-B (antibody, V domains shown)
VH: QVQLQQPGAELVKPGASVKLSCKASGYAFISHWMHWVRQRPGRGLEWIGRIDPNSSGSKDNEKFRSKATLTVDKPSSTAYMQLSSLTSEDSAVYYCARSPYYSNPYWYFDVWGAGTTVTVSS
VL: EIVLTQSPALMAASPGEKVTITCSVSSSISSSNLHWYQQKSETSPKPWIYGTSNLASGVPVRFSGSGSGTSYSLTITNMEAEDAATYYCQQWSSYPFTFGSGTKLEIK
B4: binds [8].

B5: 9-G24-A (antibody, V domains shown)
VH: QVQLQQSGAELVRPGASVKLSCKASGYTFTDYEMHWVKQTPVHGLEWIGVIDPETGDTAYNQKFKDKATLTADKSSSTAYMELRSLTSEDSAVYYCARRRDYGNPYWYFDVWGAGTAVTVSS
VL: EIVLTQSPALMAASPGEKVTITCSASSSISSSNLHWYQQKSGTSPKPWIYGTSNLASGVPVRFSGSGSGTSYSLTISSMEAEDAATYVCQQWSNYPYTFGSGTKLEIK
B5: no binding [1]; no binding [2]; no binding [3]. B5: no binding [4]; no binding [5]; no binding [6].
